Data on three molecules can be found in patent US20020006638A1, “Methods for recombinant microbial production of fusion proteins and BPI-derived peptides” (priority 1998, published 2002).

One series relates to E. coli J5. The experiment in a line: Radial diffusion assay, antibacterial activity. The series is classed as cell-based. The conditions noted are these: order: XMP.284, XMP.13, XMP.391, XMP.366, XMP.353, XMP.406, XMP.407 (most to least). How it is done:
To assess the antibacterial activity of the recombinantly produced peptides, additional experiments are conducted with E. coli J5 or E. coli E104 cells in a radial diffusion assay. For these experiments, cultures of E. coli J5 were grown overnight in TYE broth (15 g tryptone, 10 g yeast extract, 5 g NaCl per liter) and then grown to mid logarithmic phase in TEA broth media (Simon et al., Proc. Nat'l. Acad. Sci. (USA), 51:877-883 (1964)). E. coli J5 cells at 2-3×10^5 cells/mL were added to molten 0.8% agarose containing nutrient broth. Serial dilutions of peptides were prepared in 0.15 M NaCl. Five μl of the diluted peptides, or as a control, saline alone, were added to 3 mm wells prepared in the hardened agarose (5 μl/well). The plates were sealed with parafilm to prevent drying and incubated at 37° C. for 24 hours. Zones of inhibition were measured and the net areas of inhibition determined by subtracting the area comprising the 3 mm well from the area encompassing the 3 mm well plus the inhibition zone. Recombinantly produced peptides are assayed for antibacterial activity and compared to the equivalent synthetic peptides. […] Synthetic peptides XMP.406 and XMP.407 have the same sequences as peptides prepared from the encoded fusion protein described in Example 1, Section 7 and Example 3.

Series [1] deals with human, rabbit and sheep red blood cells and several human tumor cell lines. The conditions noted are these: 10^−6 M; cited from earlier work.
Another series relates to gram-negative bacteria. To be noted: broad range of gram-negative bacteria; Elsbach and Weiss (1992); cited from earlier work.
For series [2], the system named is Candida albicans and Candida parapsilosis. To be noted: 10^−6 M; pH 7.0 or 5.5; cited from earlier work.
The subject of series [3] is Staphylococcus aureus (four strains), Staphylococcus epidermidis, Streptococcus faecalis, Bacillus subtilis, Micrococcus lysodeikiticus, and Listeria …. The conditions noted are these: 10^−6 M or 160 μg/mL; pH of either 7.0 or 5.5; cited from earlier work.

Turning to “XMP.284: BPI 149-161, K @ 152 (G) (SKVKWLIQLFHK)”, the “antibacterial activity, rank order of synthetic peptides” value in the series on E. coli J5 was “the most antibacterial activity”.

In the case of “XMP.407: BPI 147-162, P @ 147 (S), A @ 153 (W), D @ 162 (I) (PKSKVGALIQLFHKKD)”, the “antibacterial activity, rank order of synthetic peptides” value in the series on E. coli J5 was “the least bactericidal”.

B1: BPI: bactericidal/permeability-increasing protein, isolated from granules of mammalian polymorphonuclear leukocytes, approximately 55 kD (protein, UniProt P17213 32-487, looked up)
Bactericidal …: VNPGVVVRISQKGLDYASQQGTAALQKELKRIKIPDYSDSFKIKHLGKGHYSFYSMDIREFQLPSSQISMVPNVGLKFSISNANIKISGKWKAQKRFLKMSGNFDLSIEGMSISADLKLGSNPTSGKPTITCSSCSSHINSVHVHISKSKVGWLIQLFHKKIESALRNKMNSQVCEKVTNSVSSELQPYFQTLPVMTKIDSVAGINYGLVAPPATTAETLDVQMKGEFYSENHHNPPPFAPPVMEFPAAHDRMVYLGLSDYFFNTAGLVYQEAGVLKMTLRDDMIPKESKFRLTTKFFGTFLPEVAKKFPNMKIQIHVSASTPPHLSVQPTGLTFYPAVDVQAFAVLPNSSLASLFLIGMHTTGSMEVSAESNRLVGELKLDRLLLELKHSNIGPFPVELLQDIMNYIVPILVLPRVNEKLQKGFPLPTPARVQLYNVVLQPHQNFLLFGADVVYK
As to B1, the “toxicity to higher eukaryotic cells” value in series [1] is reported as “non-toxic”. In addition, the “concentration at which anti-bacterial activity is exhibited (as low as)” value with gram-negative bacteria is listed as 10^−8 to 10^−9 M. Also, in series [2], the “toxic effect on fungi” value is given as “no toxic effect”. The “toxic effect on gram-positive organisms” value in series [3] is reported as “no toxic effect”.
